From patent publication US20220332804A1 (CSL INNOVATION, published 2022) come the findings set out here.

Holding throughout (assay): SPR, KD relative to WT C2;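 also: biacore SPR at 37 °C, anti-C2 mAbs captured on anti-human IgG chips with alanine or serine point mutants of C2 as analyte, KD from 1:1 fit compared with wild-type C2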
For orientation: SPR reads the build-up and loss of mass on a sensor chip optically.

One assay deals with T1, human C2 K329A (human, UniProt P06681 21-752).
T1 sequence: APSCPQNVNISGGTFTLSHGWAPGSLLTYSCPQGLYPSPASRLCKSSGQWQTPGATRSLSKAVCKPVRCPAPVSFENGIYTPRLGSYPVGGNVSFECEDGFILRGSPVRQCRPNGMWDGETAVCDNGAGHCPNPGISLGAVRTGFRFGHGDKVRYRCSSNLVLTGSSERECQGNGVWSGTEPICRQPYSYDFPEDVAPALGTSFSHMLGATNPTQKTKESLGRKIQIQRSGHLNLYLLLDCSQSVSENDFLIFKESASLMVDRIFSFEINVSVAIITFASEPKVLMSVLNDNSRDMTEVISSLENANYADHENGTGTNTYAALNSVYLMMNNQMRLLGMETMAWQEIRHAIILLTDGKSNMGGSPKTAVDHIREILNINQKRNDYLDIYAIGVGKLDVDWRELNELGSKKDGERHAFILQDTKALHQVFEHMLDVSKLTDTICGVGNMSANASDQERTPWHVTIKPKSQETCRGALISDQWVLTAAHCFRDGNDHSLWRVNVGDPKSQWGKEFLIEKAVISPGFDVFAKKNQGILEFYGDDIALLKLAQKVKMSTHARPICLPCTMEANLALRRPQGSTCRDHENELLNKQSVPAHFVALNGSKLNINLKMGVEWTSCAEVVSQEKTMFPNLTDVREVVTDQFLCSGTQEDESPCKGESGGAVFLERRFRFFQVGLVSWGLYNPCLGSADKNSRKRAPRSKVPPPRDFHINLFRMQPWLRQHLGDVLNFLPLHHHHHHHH

Another assay addresses T2, human C2 H435A (human, UniProt P06681 21-752).
T2 sequence: T1 sequence with A309K, H415A

The next assay addresses T3, human C2 D441A (human, UniProt P06681 21-752).
T3 sequence: T1 sequence with A309K, D421A

The target of another assay is T4, human C2 E476A (human, UniProt P06681 21-752).
T4 sequence: T1 sequence with A309K, E456A

Numbering of substitutions follows the chain as printed.

B1: RF16-242 (antibody, human IgG4 S228P, lambda, V domains shown)
VH: EVQLLQSGAEVKKPGESLKISCKGSGYSFTSYWIGWVRQMPGKGLEWMGIIYPGDSDTRYSPSFQGQVTISADKSISTAYLQWSSLKASDTAMYYCARRGHYGDYFDYWGQGTLVTVSS
VL: SYELTQPPSVSVSPGQTARITCSGDALPKKYAYWYHQKSGQAPVLVIYEDRRRPSEIPERFSGSSSGTMATLTITGAQVEDEGVYFCYSRDRAGNQRVFGGGTQLTVLG
notes: pH-dependent anti-C2 antibody from a phage display library
With B1, the Fold diff was found to be 2 fold with human C2 K329A, 9 fold with human C2 H435A, 16 fold in the assay with human C2 D441A and 2 fold with human C2 E476A.
